Tests used:
[1] = biological target: human Claudin-6 (CLDN6) (human) (UniProt P56747); assay: flow cytometry, UMUC4 cells (positive cell line); 2nd Ab only 1,114.73
[2] = biological target: human Claudin-6 (CLDN6) (human) (UniProt P56747); assay: FACS, 1.5 ug Ab, ARK2 cells (2nd Ab only 1351.21)
[3] = biological target: human Claudin-6 (CLDN6) (human) (UniProt P56747); assay: FACS, 0.3 ug Ab, ARK2 cells (2nd Ab only 1351.21)
[4] = biological target: human Claudin-6 (CLDN6) (human) (UniProt P56747); assay: KinExA, HEK293T CLDN6-mGFP A11 cells detached by Versene, equilibrium curves 500pM, 10nM; printed 95% CI 0.53nM - 2.03nM
[5] = biological target: human Claudin-6 (CLDN6) (human) (UniProt P56747); assay: FACS, limiting dilution, ARK2 cells
[6] = biological target: human Claudin-6 (CLDN6) (human) (UniProt P56747); assay: FACS, limiting dilution, UMUC4 cells
mouse Claudin-6 (CLDN6) = biological target: T1, mouse Claudin-6 (CLDN6) (mouse, UniProt Q9Z262 1-219); assay: FACS, 293T clone expressing mouse CLDN6, dose not stated (2nd Ab only 1061.72)
T1 construct: whole, on cells; GFP fusion on engineered HEK293T cells; also called Mouse CLDN6; murine CLDN6
T1 sequence (looked up): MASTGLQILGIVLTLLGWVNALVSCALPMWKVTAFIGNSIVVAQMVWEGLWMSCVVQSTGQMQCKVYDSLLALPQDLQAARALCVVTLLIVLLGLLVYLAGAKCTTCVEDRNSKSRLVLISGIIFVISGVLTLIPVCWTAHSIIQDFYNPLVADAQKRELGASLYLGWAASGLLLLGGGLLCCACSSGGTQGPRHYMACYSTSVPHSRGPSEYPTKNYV
Protocol: Two doses (1.5 μg or 0.3 μg) of the humanized antibodies were tested for binding to either human CLDN6 or murine CLDN6 which proteins were expressed by engineered 293T clones.

[7] = biological target: human Claudin-6 (CLDN6) (human) (UniProt P56747); assay: FACS, 1.5 ug Ab, 293T clone expressing human CLDN6 (2nd Ab only 768.07)
[8] = biological target: human Claudin-6 (CLDN6) (human) (UniProt P56747); assay: FACS, 0.3 ug Ab, 293T clone expressing human CLDN6 (2nd Ab only 768.07)
[9] = biological target: human Claudin-6 (CLDN6) (human) (UniProt P56747); assay: FACS, limiting dilution, OV90 cells
[10] = biological target: human Claudin-6 (CLDN6) (human) (UniProt P56747); assay: flow cytometry, HEK293T CLDN6-mGFP A11 cells (positive artificial OE cell line); 2nd Ab only 1,242.89

B1: AB3-7 (antibody, V domains shown)
VH: EVQLLESGGGLVQPGGSMRLSCAASGFTFSNYWMNWVRQAPGKGLEWVAQIRLKSDNYATHYADSVKGRFTISRDDSKNTVYLQMNSLRAEDTGVYYCNDGPPSGSWGQGTLLTVSS
VL: DIQMTQSPSSLSASVGDRVTITCRISENIYSYLAWYQQKPGKAPKLLVYNAKILVEGVPSRFSGSGSGTDFTLTISSLQPEDFGTYYCQHHYTVPWTFGQGTKLEIK
notes: humanized; also called AB23; humanized AB3-7
[1]
  flow cytometry signal at 0.1µg Ab/Sample: 8820
  flow cytometry signal at 1µg Ab/Sample: 27300
[2]
  FACS fluorescence: 90400
[3]
  FACS fluorescence: 36000
[4]
  Kd: 1.13 nM
[5]
  FACS signal at 0.32 nM: 402
  FACS signal at 1.6 nM: 537
  FACS signal at 8 nM: 991
  FACS signal at 40 nM: 1640
  FACS signal at 200 nM: 3060
  FACS signal at 1000 nM: 11400
[6]
  FACS signal at 0.32 nM: 604
  FACS signal at 1.6 nM: 570
  FACS signal at 8 nM: 724
  FACS signal at 40 nM: 1120
  FACS signal at 200 nM: 2110
  FACS signal at 1000 nM: 9840
Mouse Claudin-6 (CLDN6)
  FACS fluorescence: 56100
[7]
  FACS fluorescence: 169000
[8]
  FACS fluorescence: 106000
[9]
  FACS signal at 0.32 nM: 393
  FACS signal at 1.6 nM: 567
  FACS signal at 8 nM: 565
  FACS signal at 40 nM: 1140
  FACS signal at 200 nM: 2330
  FACS signal at 1000 nM: 9390
[10]
  flow cytometry signal at 0.1µg Ab/Sample: 107000
